B1: Ras-related protein Rab-9A (Mus musculus), Q9R0M6 (parent)
chain: MAGKSSLFKIILLGDGGVGKSSLMNRYVTNKFDSQLFHTIGVEFLNKDLEVDGHFVTMQIWDTAGQERFRSLRTPFYRGSDCCLLTFSVDDSQSFQNLSNWKKEFIYYADVKEPESFPFVILGNKTDIKERQVSTEEAQAWCKDNGDYPYFETSAKDSTNVAAAFEEAVRRILATEDRSEHLIQTDTVNLHRKPKPNSSCC
partner: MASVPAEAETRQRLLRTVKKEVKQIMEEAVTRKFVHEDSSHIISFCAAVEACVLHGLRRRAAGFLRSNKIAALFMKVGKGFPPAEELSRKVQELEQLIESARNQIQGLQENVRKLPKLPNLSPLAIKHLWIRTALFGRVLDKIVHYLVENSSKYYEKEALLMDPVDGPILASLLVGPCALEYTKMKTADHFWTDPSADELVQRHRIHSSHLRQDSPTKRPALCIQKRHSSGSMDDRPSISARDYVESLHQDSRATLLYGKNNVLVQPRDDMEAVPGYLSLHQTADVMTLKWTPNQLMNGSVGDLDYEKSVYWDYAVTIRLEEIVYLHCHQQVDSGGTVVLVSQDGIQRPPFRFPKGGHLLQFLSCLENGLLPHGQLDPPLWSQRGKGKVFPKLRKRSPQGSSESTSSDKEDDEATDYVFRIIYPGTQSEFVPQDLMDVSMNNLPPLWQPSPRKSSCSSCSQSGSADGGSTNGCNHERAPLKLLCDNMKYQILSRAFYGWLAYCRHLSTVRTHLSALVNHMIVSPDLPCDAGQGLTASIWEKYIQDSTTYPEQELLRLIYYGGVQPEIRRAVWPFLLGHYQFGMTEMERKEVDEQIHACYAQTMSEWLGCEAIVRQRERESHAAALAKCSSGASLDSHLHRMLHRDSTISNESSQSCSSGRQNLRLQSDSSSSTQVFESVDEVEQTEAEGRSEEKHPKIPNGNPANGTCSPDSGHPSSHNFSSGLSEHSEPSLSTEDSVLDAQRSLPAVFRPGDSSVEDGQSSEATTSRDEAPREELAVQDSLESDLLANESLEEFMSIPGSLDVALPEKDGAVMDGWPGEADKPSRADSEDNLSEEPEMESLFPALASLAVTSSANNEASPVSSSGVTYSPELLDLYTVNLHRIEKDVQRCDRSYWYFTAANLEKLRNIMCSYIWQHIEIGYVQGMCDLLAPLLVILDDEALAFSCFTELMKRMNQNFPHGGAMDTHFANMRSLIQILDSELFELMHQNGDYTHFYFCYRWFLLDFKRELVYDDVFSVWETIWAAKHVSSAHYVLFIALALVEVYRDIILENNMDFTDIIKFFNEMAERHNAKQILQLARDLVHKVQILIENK
B2: Small G protein signaling modulator 1 (Mus musculus), Q8BPQ7-1 (parent)
chain: B1 partner
partner: B1 chain

Variants of: B1
Settings: with Sgsm1, Q8BPQ7-1

Variant	effect of a mutation on the interaction
I40A	decreasing interaction strength
V42A	decreasing interaction strength
G41A	disrupting interaction strength
G41D	disrupting interaction strength
F44A	decreasing interaction strength
F76A	decreasing interaction strength
E43A	decreasing interaction strength
W61A	decreasing interaction strength

Variants of: B1
Settings: with Sgsm1, Q8BPQ7-1
Remark: another data set of the same source

Variant	effect of a mutation on the interaction
G41A	decreasing interaction strength
G41D	decreasing interaction strength
F69A	decreasing interaction strength
L72A	decreasing interaction strength

Variants of: B2
Settings: with rab9a_mouse Rab9a

Variant	effect of a mutation on the interaction
Y277A	disrupting interaction strength
L256A	disrupting interaction strength
M297A	disrupting interaction strength
N294A	disrupting interaction strength
K260A	disrupting interaction strength
N261A	disrupting interaction strength

Variants of: B2
Settings: with rab9a_mouse Rab9a
Remark: another data set of the same source

Variant	effect of a mutation on the interaction
L256A	decreasing interaction strength
M297A	decreasing interaction strength
K260A	decreasing interaction strength
